# Measured values from publication PMC5658623.
# Target: PhaPTD from Halomonas bluephagenesis TD01 (Halomonas bluephagenesis TD01)
# Assay: SEC-MALS; Superdex 200 gel filtration connected to an eighteen-angle static light scattering system (DAWN HELEOS II); HBS buffer (1.5 mM Na2HPO4, 50 mM HEPS, 150 mM NaCl); sample at 1 mg/mL; 0.5 mL/min; 16°C
substance,measurement,value
PhaPTD from Halomonas bluephagenesis TD01 (natural protein),stoichiometry N,3
